We go through 9 molecules from patent US20230357348A1 (AstraZeneca / MedImmune, published 2023).

Starred links: 1 amine or outer side, 2 acyl side, 3 side chain; linkers in the order of their positions; H or OH if unused. Non-standard residues stand in square brackets, D forms with d. Groups on a side chain read outwards from the residue. No end group written: not given here. *: point of attachment. C20 diacid = O=C(O)CCCCCCCCCCCCCCCCCCC(=O)*; C18 diacid = O=C(O)CCCCCCCCCCCCCCCCC(=O)*; γGlu = O=C(O)[C@H](CCC(=O)[*:2])N[*:1]; αMeF = C[C@](N)(Cc1ccccc1)C(=O)O; AEEA = NCCOCCOCC(=O)O; Aib = CC(C)(N)C(=O)O

Assay [1] concerns the target human glucagon receptor (hGCGR) (human, UniProt P47871 26-477). Kind of assay: cell-based or functional assay.
Assay [2] deals with human GLP-1 receptor (hGLP-1R) (human, UniProt P43220 24-463). Kind of assay: cell-based or functional assay.

human glucagon receptor (hGCGR), sequence (P47871 26-477): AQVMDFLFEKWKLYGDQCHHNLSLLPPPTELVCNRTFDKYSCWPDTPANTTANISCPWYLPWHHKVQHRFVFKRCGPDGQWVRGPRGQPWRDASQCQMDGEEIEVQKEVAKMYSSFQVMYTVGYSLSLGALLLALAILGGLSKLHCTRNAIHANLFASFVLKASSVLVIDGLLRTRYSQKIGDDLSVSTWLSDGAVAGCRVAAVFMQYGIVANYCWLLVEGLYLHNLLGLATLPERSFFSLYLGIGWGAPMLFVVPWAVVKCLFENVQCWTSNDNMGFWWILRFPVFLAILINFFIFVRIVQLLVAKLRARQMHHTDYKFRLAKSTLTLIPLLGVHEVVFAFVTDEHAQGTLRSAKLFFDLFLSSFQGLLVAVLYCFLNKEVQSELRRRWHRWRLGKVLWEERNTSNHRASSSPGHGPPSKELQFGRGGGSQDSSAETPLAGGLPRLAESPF

B1: Peptide 449 (peptide)
peptide: H[Aib]QGTFTSDVSK[αMeF]LDTK([AEEA-AEEA-γGlu-γGlu-C20 diacid])RARDFVQWLLE[Aib]G-OH
modifications: N-terminus assumed
SMILES: CC(C)C[C@H](NC(=O)[C@H](Cc1c[nH]c2ccccc12)NC(=O)[C@H](CCC(N)=O)NC(=O)[C@@H](NC(=O)[C@H](Cc1ccccc1)NC(=O)[C@H](CC(=O)O)NC(=O)[C@H](CCCNC(=N)N)NC(=O)[C@H](C)NC(=O)[C@H](CCCNC(=N)N)NC(=O)[C@H](CCCCNC(=O)COCCOCCNC(=O)COCCOCCNC(=O)CC[C@H](NC(=O)CC[C@H](NC(=O)CCCCCCCCCCCCCCCCCCC(=O)O)C(=O)O)C(=O)O)NC(=O)[C@@H](NC(=O)[C@H](CC(=O)O)NC(=O)[C@H](CC(C)C)NC(=O)[C@](C)(Cc1ccccc1)NC(=O)[C@H](CCCCN)NC(=O)[C@H](CO)NC(=O)[C@@H](NC(=O)[C@H](CC(=O)O)NC(=O)[C@H](CO)NC(=O)[C@@H](NC(=O)[C@H](Cc1ccccc1)NC(=O)[C@@H](NC(=O)CNC(=O)[C@H](CCC(N)=O)NC(=O)C(C)(C)NC(=O)[C@@H](N)Cc1c[nH]cn1)[C@@H](C)O)[C@@H](C)O)C(C)C)[C@@H](C)O)C(C)C)C(=O)N[C@@H](CC(C)C)C(=O)N[C@@H](CCC(=O)O)C(=O)NC(C)(C)C(=O)NCC(=O)O
For the molecule B1, the “hGluc-R EC50 (pM)” value in assay [1] amounted to 242 pM. Moreover, the “hGLP-1R EC50 (pM)” value in assay [2] amounted to 207 pM.

B2: Peptide 442 (peptide)
peptide: H[Aib]QGTFTSDVSK[αMeF]LDKK([AEEA-AEEA-γGlu-C18 diacid])RAQDFVRWLLE[Aib]G-NH2
modifications: N-terminus assumed
SMILES: CC(C)C[C@H](NC(=O)[C@H](Cc1c[nH]c2ccccc12)NC(=O)[C@H](CCCNC(=N)N)NC(=O)[C@@H](NC(=O)[C@H](Cc1ccccc1)NC(=O)[C@H](CC(=O)O)NC(=O)[C@H](CCC(N)=O)NC(=O)[C@H](C)NC(=O)[C@H](CCCNC(=N)N)NC(=O)[C@H](CCCCNC(=O)COCCOCCNC(=O)COCCOCCNC(=O)CC[C@H](NC(=O)CCCCCCCCCCCCCCCCC(=O)O)C(=O)O)NC(=O)[C@H](CCCCN)NC(=O)[C@H](CC(=O)O)NC(=O)[C@H](CC(C)C)NC(=O)[C@](C)(Cc1ccccc1)NC(=O)[C@H](CCCCN)NC(=O)[C@H](CO)NC(=O)[C@@H](NC(=O)[C@H](CC(=O)O)NC(=O)[C@H](CO)NC(=O)[C@@H](NC(=O)[C@H](Cc1ccccc1)NC(=O)[C@@H](NC(=O)CNC(=O)[C@H](CCC(N)=O)NC(=O)C(C)(C)NC(=O)[C@@H](N)Cc1c[nH]cn1)[C@@H](C)O)[C@@H](C)O)C(C)C)C(C)C)C(=O)N[C@@H](CC(C)C)C(=O)N[C@@H](CCC(=O)O)C(=O)NC(C)(C)C(=O)NCC(N)=O
With B2, the “hGluc-R EC50 (pM)” value in assay [1] is 35.8 pM. In addition, in assay [2], the “hGLP-1R EC50 (pM)” value worked out at 19.1 pM.

B3: Peptide 448 (peptide)
peptide: H[Aib]QGTFTSDVSK[αMeF]LDKK([AEEA-AEEA-γGlu-γGlu-C18 diacid])RARDFVRWLL[Aib]E-OH
modifications: N-terminus assumed
SMILES: CC(C)C[C@H](NC(=O)[C@H](Cc1c[nH]c2ccccc12)NC(=O)[C@H](CCCNC(=N)N)NC(=O)[C@@H](NC(=O)[C@H](Cc1ccccc1)NC(=O)[C@H](CC(=O)O)NC(=O)[C@H](CCCNC(=N)N)NC(=O)[C@H](C)NC(=O)[C@H](CCCNC(=N)N)NC(=O)[C@H](CCCCNC(=O)COCCOCCNC(=O)COCCOCCNC(=O)CC[C@H](NC(=O)CC[C@H](NC(=O)CCCCCCCCCCCCCCCCC(=O)O)C(=O)O)C(=O)O)NC(=O)[C@H](CCCCN)NC(=O)[C@H](CC(=O)O)NC(=O)[C@H](CC(C)C)NC(=O)[C@](C)(Cc1ccccc1)NC(=O)[C@H](CCCCN)NC(=O)[C@H](CO)NC(=O)[C@@H](NC(=O)[C@H](CC(=O)O)NC(=O)[C@H](CO)NC(=O)[C@@H](NC(=O)[C@H](Cc1ccccc1)NC(=O)[C@@H](NC(=O)CNC(=O)[C@H](CCC(N)=O)NC(=O)C(C)(C)NC(=O)[C@@H](N)Cc1c[nH]cn1)[C@@H](C)O)[C@@H](C)O)C(C)C)C(C)C)C(=O)N[C@@H](CC(C)C)C(=O)NC(C)(C)C(=O)N[C@@H](CCC(=O)O)C(=O)O
Turning to B3, the “hGluc-R EC50 (pM)” value in assay [1] was determined as 29 pM. Further, in assay [2], the “hGLP-1R EC50 (pM)” value came to 53.1 pM.

B4: Peptide 441 (peptide)
peptide: H[Aib]QGTFTSDVSK[αMeF]LDKK([AEEA-AEEA-γGlu-C20 diacid])RAQDFVRWLL[Aib]E-NH2
modifications: N-terminus assumed
SMILES: CC(C)C[C@H](NC(=O)[C@H](Cc1c[nH]c2ccccc12)NC(=O)[C@H](CCCNC(=N)N)NC(=O)[C@@H](NC(=O)[C@H](Cc1ccccc1)NC(=O)[C@H](CC(=O)O)NC(=O)[C@H](CCC(N)=O)NC(=O)[C@H](C)NC(=O)[C@H](CCCNC(=N)N)NC(=O)[C@H](CCCCNC(=O)COCCOCCNC(=O)COCCOCCNC(=O)CC[C@H](NC(=O)CCCCCCCCCCCCCCCCCCC(=O)O)C(=O)O)NC(=O)[C@H](CCCCN)NC(=O)[C@H](CC(=O)O)NC(=O)[C@H](CC(C)C)NC(=O)[C@](C)(Cc1ccccc1)NC(=O)[C@H](CCCCN)NC(=O)[C@H](CO)NC(=O)[C@@H](NC(=O)[C@H](CC(=O)O)NC(=O)[C@H](CO)NC(=O)[C@@H](NC(=O)[C@H](Cc1ccccc1)NC(=O)[C@@H](NC(=O)CNC(=O)[C@H](CCC(N)=O)NC(=O)C(C)(C)NC(=O)[C@@H](N)Cc1c[nH]cn1)[C@@H](C)O)[C@@H](C)O)C(C)C)C(C)C)C(=O)N[C@@H](CC(C)C)C(=O)NC(C)(C)C(=O)N[C@@H](CCC(=O)O)C(N)=O
As for B4, the “hGluc-R EC50 (pM)” value in assay [1] amounted to 72.8 pM. Besides, the “hGLP-1R EC50 (pM)” value in assay [2] is 62.7 pM.

For the molecule H[Aib]QGTFTSDVSK[αMeF]LETKRARDFVQWLLE[Aib]G-OH (not fully specified (residue 17)) [Peptide 444], in assay [1], the “hGluc-R EC50 (pM)” value is 1760 pM. In addition, the “hGLP-1R EC50 (pM)” value in assay [2] came to 247 pM.

B5: Peptide 446 (peptide)
peptide: H[Aib]QGTFTSDVSK[αMeF]LDRK([AEEA-AEEA-γGlu-γGlu-C18 diacid])RAQDFVRWLV[Aib]E-NH2
modifications: N-terminus assumed
SMILES: CC(C)C[C@H](NC(=O)[C@H](Cc1c[nH]c2ccccc12)NC(=O)[C@H](CCCNC(=N)N)NC(=O)[C@@H](NC(=O)[C@H](Cc1ccccc1)NC(=O)[C@H](CC(=O)O)NC(=O)[C@H](CCC(N)=O)NC(=O)[C@H](C)NC(=O)[C@H](CCCNC(=N)N)NC(=O)[C@H](CCCCNC(=O)COCCOCCNC(=O)COCCOCCNC(=O)CC[C@H](NC(=O)CC[C@H](NC(=O)CCCCCCCCCCCCCCCCC(=O)O)C(=O)O)C(=O)O)NC(=O)[C@H](CCCNC(=N)N)NC(=O)[C@H](CC(=O)O)NC(=O)[C@H](CC(C)C)NC(=O)[C@](C)(Cc1ccccc1)NC(=O)[C@H](CCCCN)NC(=O)[C@H](CO)NC(=O)[C@@H](NC(=O)[C@H](CC(=O)O)NC(=O)[C@H](CO)NC(=O)[C@@H](NC(=O)[C@H](Cc1ccccc1)NC(=O)[C@@H](NC(=O)CNC(=O)[C@H](CCC(N)=O)NC(=O)C(C)(C)NC(=O)[C@@H](N)Cc1c[nH]cn1)[C@@H](C)O)[C@@H](C)O)C(C)C)C(C)C)C(=O)N[C@H](C(=O)NC(C)(C)C(=O)N[C@@H](CCC(=O)O)C(N)=O)C(C)C
For B5, the “hGluc-R EC50 (pM)” value in assay [1] was determined as 366 pM. The “hGLP-1R EC50 (pM)” value in assay [2] was 32.9 pM.

B6: Peptide 443 (peptide)
peptide: H[Aib]QGTFTSDVSK[αMeF]LDKK([AEEA-AEEA-γGlu-C18 diacid])RARDFVRWLL[Aib]E-NH2
modifications: N-terminus assumed
SMILES: CC(C)C[C@H](NC(=O)[C@H](Cc1c[nH]c2ccccc12)NC(=O)[C@H](CCCNC(=N)N)NC(=O)[C@@H](NC(=O)[C@H](Cc1ccccc1)NC(=O)[C@H](CC(=O)O)NC(=O)[C@H](CCCNC(=N)N)NC(=O)[C@H](C)NC(=O)[C@H](CCCNC(=N)N)NC(=O)[C@H](CCCCNC(=O)COCCOCCNC(=O)COCCOCCNC(=O)CC[C@H](NC(=O)CCCCCCCCCCCCCCCCC(=O)O)C(=O)O)NC(=O)[C@H](CCCCN)NC(=O)[C@H](CC(=O)O)NC(=O)[C@H](CC(C)C)NC(=O)[C@](C)(Cc1ccccc1)NC(=O)[C@H](CCCCN)NC(=O)[C@H](CO)NC(=O)[C@@H](NC(=O)[C@H](CC(=O)O)NC(=O)[C@H](CO)NC(=O)[C@@H](NC(=O)[C@H](Cc1ccccc1)NC(=O)[C@@H](NC(=O)CNC(=O)[C@H](CCC(N)=O)NC(=O)C(C)(C)NC(=O)[C@@H](N)Cc1c[nH]cn1)[C@@H](C)O)[C@@H](C)O)C(C)C)C(C)C)C(=O)N[C@@H](CC(C)C)C(=O)NC(C)(C)C(=O)N[C@@H](CCC(=O)O)C(N)=O
Take B6: the “hGluc-R EC50 (pM)” value in assay [1] was determined as 22.4 pM. For the same molecule, the “hGLP-1R EC50 (pM)” value in assay [2] stood at 20.6 pM.

Take H[Aib]QGTFTSDVSK[αMeF]LETK([AEEA-AEEA-γGlu-C18 diacid])RARDFVQWLLE[Aib]G-OH [Peptide 445]: in assay [1], the “hGluc-R EC50 (pM)” value worked out at 684 pM. Further, the “hGLP-1R EC50 (pM)” value in assay [2] is 33 pM.

B7: Peptide 447 (peptide)
peptide: H[Aib]QGTFTSDVSK[αMeF]LDRK([AEEA-AEEA-γGlu-γGlu-C20 diacid])RAQDFVRWLV[Aib]E-NH2
modifications: N-terminus assumed
SMILES: CC(C)C[C@H](NC(=O)[C@H](Cc1c[nH]c2ccccc12)NC(=O)[C@H](CCCNC(=N)N)NC(=O)[C@@H](NC(=O)[C@H](Cc1ccccc1)NC(=O)[C@H](CC(=O)O)NC(=O)[C@H](CCC(N)=O)NC(=O)[C@H](C)NC(=O)[C@H](CCCNC(=N)N)NC(=O)[C@H](CCCCNC(=O)COCCOCCNC(=O)COCCOCCNC(=O)CC[C@H](NC(=O)CC[C@H](NC(=O)CCCCCCCCCCCCCCCCCCC(=O)O)C(=O)O)C(=O)O)NC(=O)[C@H](CCCNC(=N)N)NC(=O)[C@H](CC(=O)O)NC(=O)[C@H](CC(C)C)NC(=O)[C@](C)(Cc1ccccc1)NC(=O)[C@H](CCCCN)NC(=O)[C@H](CO)NC(=O)[C@@H](NC(=O)[C@H](CC(=O)O)NC(=O)[C@H](CO)NC(=O)[C@@H](NC(=O)[C@H](Cc1ccccc1)NC(=O)[C@@H](NC(=O)CNC(=O)[C@H](CCC(N)=O)NC(=O)C(C)(C)NC(=O)[C@@H](N)Cc1c[nH]cn1)[C@@H](C)O)[C@@H](C)O)C(C)C)C(C)C)C(=O)N[C@H](C(=O)NC(C)(C)C(=O)N[C@@H](CCC(=O)O)C(N)=O)C(C)C
On to B7, for which the “hGluc-R EC50 (pM)” value in assay [1] was determined as 667 pM. Moreover, the “hGLP-1R EC50 (pM)” value in assay [2] is 170 pM.
